Results from patent US20090068207A1, “Compositions Containing Beta 2-Glycoprotein I-Derived Peptides for the Prevention and/or Treatment of Vascular Disease” (Vascular Biogenics Ltd., priority 2005, published 2009).

Key:
[1] = test system: inguinal lymph node cells; test: Lymph node cell proliferation (stimulation index) to sensitizing antigen β2GPI after mucosal administration; format: in vivo, mice
Method: Immunization: Subcutaneous immunization with human β2GPI: Human β2GPI was prepared from human plasma pool as described above. For immunization, human β2GPI was dissolved in PBS and mixed with equal volumes of Freund's incomplete adjuvant. Immunizations were performed by single subcutaneous injection of 10 μg antigen/mouse in 0.1 ml volume. Three days following the last mucosal administration of plaque associated molecules the mice received one immunization, and were sacrificed 10 days post immunization.
Proliferation assays: Mice were exposed to the tested antigen as described for assessment of atherosclerosis, and then immunized (one to three days following the last exposure) subcutaneously with 10 μg β2GPI in 0.1 ml PBS, prepared from purified human β2GPI as described above.
Proliferation was assayed ten days after immunization with the β2GPI as follows: Draining inguinal lymph nodes were prepared by mashing the tissues on 100 mesh screens. Red blood cells were lysed with cold sterile double distilled water (6 ml) for 30 seconds and 2 ml of NaCl 3.5% was added. Incomplete medium was added (10 ml), cells were centrifuged for 7 min at 1,700 rpm, resuspended in RPMI medium and counted in a haemocytometer at 1:20 dilution (10 μl cells+190 μl Trypan Blue). Proliferation was measured by the incorporation of [^3H] Thymidine into DNA in triplicate samples of 100 μl of the packed cells (1×10^6 cells/ml) in a 96 well microtiter plate. […] Thymidine (0.5 μCi/well) was added. After an additional 12-24 hours of incubation the cells were harvested and transferred to glass fiber filters using a cell harvester (Brandel) and counted using β-counter (Lumitron). Proliferation was measured by the incorporation of [^3H] thymidine into DNA during the final 12 h of incubation. The results are expressed as the stimulation index (S.I.): the ratio of the mean radioactivity (cpm) of the antigen to the mean background (cpm) obtained in the absence of the antigen. Standard deviation was always <10% of the mean cpm.
Tolerance induced by mucosal exposure to plaque-associated molecules may be mediated by suppression of specific immune responses to antigenic portions (epitopes) of these plaque associated molecules. Lymphocyte proliferation in response to mucosal (nasal and oral) exposure to human β2GPI was measured in […]. 9 male, 5 week old LDL-RD mice were divided into 3 groups. In group A (n=3) oral tolerance was induced with 100 μg/mouse β2GPI suspended in 0.1 ml PBS, administered by gavage, as described above, every other day for 5 days. In group B (n=3) nasal tolerance was induced with 10 μg/mouse β2GPI suspended in 10 μl PBS, administered intranasally as described above, every other day for 5 days. The mice in group C (n=3) received oral administration of 200 μl PBS every other day for 5 days. Immune reactivity was stimulated in all mice by immunization with human β2GPI as described above in the Materials and Methods section, one day after the last feeding. Ten days after the immunization lymph nodes were collected for assay of proliferation (as expressed in the Stimulation Index SI). All mice were fed normal chow-diet containing 4.5% fat by weight (0.02% cholesterol) and water ad libitum.

[2] = test system: atherosclerotic lesions; test: Immunohistochemistry of atherosclerotic lesions (β2GPI, CD3, Mac-1); format: in vivo, mice
Text: Immunohistochemistry of atherosclerotic lesions: Immunohistochemical staining for CD3, macrophages and β2GPI content were done on aortic sinus 5-μm-thick frozen sections. Primary antibodies used for probing were rat anti-mouse CD3, rat anti-mouse Mac-1 and a polyclonal rat anti-mouse β2GPI antibodies (George et al Circulation 2000; 102:1822-7). Slides were developed with the three amino-9-ethylcarbonasole (AEC) substrate. Sections were counterstained with hematoxylin. Spleen sections were used as a positive control. Staining in the absence of 1st or 2nd antibody was used as a negative control. β2GPI presence were evaluated by its occupancy of plaque area by computerized morphometry as described previously for VCAM-1 (George et al, Circ Res. 2000; 86:1203-10).
No effect of oral β2GPI on the number of CD3 positive cells (0-5 cells/plaque in all groups; data not shown) or macrophage (Mac-1 positive) content of the fatty streaks was observed.

[3] = test system: lymph node cells; test: Lymph node cell proliferation (stimulation index) to oxLDL after oral administration; format: in vivo, mice
Method: Proliferation was measured by the incorporation of [^3H] thymidine into DNA during the final 12 h of incubation. The results were computed as stimulation index: the ratio of the mean cpm of the antigen to the mean background cpm obtained in the absence of the antigen.
[…] Three days after the final administration of peptides, the mice were immunized with OxLDL in incomplete Freund's adjuvant, as described in the Examples above, and lymph node cells assessed for antigen (OxLDL) stimulation of proliferation 10 days later. Proliferation was assessed by incorporation of thymidine, expressed as the Stimulation Index, as described.

[4] = test system: lymph node cells; test: Cytokine secretion by lymph node cells of tolerized mice (ELISA of conditioned medium); format: in vivo
Method: IFN-γ, IL-4, IL-10 and TGF-β secretion in tolerized lymph nodes: Conditioned medium was obtained from the lymph node proliferation experiments following 48 h of culture in the presence of β2GPI.

[5] = test system: anti-β2GPI antibodies and antibody isotypes; test: Serum antibody levels and isotypes (ELISA); format: in vivo, mice; settings: oral administration, subsequently immunized with β2GPI; data not shown
Method: Detection of anti-b2GPI antibodies and antibody isotypes: β2GPI (10 μg/ml) was coated onto flat bottom 96-well ELISA plates (Nalge-Nunc, Int. Rochester, N.Y.) by overnight incubation and the assay was performed as previously described (George et al, Circulation, 1998; 15:1108-15) IgG, IgA and IgM isotypes in the sera of β2GPI tolerant and non-tolerant mice were determined by an ELISA kit (Southern Biotechnology Associates, Birmingham, Ala., USA) according to the manufacture's instructions.
None of the orally-administered antigens induced production of antiβ2GPI antibodies (data not shown).

[6] = test system: LDL receptor deficient mice; settings: oral administration, U.S. Ser. No. 09/806,400; cited from earlier work

B1: β2GPI: beta2-glycoprotein I, species not stated at the place (human or bovine; FIG. 7 legend says bovine) (protein, UniProt P17690 20-345, looked up)
Beta-2-glycoprotein 1: GRTCPKPDELPFSTVVPLKRTYEPGEQIVFSCQPGYVSRGGIRRFTCPLTGLWPINTLKCMPRVCPFAGILENGTVRYTTFEYPNTISFSCHTGFYLKGASSAKCTEEGKWSPDLPVCAPITCPPPPIPKFASLSVYKPLAGNNSFYGSKAVFKCLPHHAMFGNDTVTCTEHGNWTQLPECREVRCPFPSRPDNGFVNHPANPVLYYKDTATFGCHETYSLDGPEEVECSKFGNWSAQPSCKASCKLSIKRATVIYEGERVAIQNKFKNGMLHGQKVSFFCKHKEKKCSYTEDAQCIDGTIEIPKCFKEHSSLAFWKTDASDVKPC
reduction of the stimulation index of lymph node cells ([1]; mucosal administration to LDL-RD mice, Examples 3 and 6): up to 70% | suppression of primary cellular response (lymph node cell proliferation) to β2GPI ([1]; oral 5 doses of 500 μg per mouse, stimulation with 2.0 μg/ml β2GPI, LDL-RD mice): > 60% | influence on primary cellular response to BSA ([1]; oral administration, mice immunized with BSA, results not shown): did not influence | content of plaque-expressed β2GPI, mean percent occupancy ([2]; oral 500 μg/dose, LDL-RD mice, data not shown): 15±5% | effect on number of CD3 positive cells or macrophage (Mac-1 positive) content of the fatty streaks ([2]; oral administration, LDL-RD mice): No effect | number of CD3 positive cells ([2]; oral administration, all groups, data not shown): 0-5 cells/plaque | suppression of primary cellular response (lymph node cell proliferation) to oxLDL ([3]; oral 5 doses of 500 μg per mouse, stimulation with 20 μg/ml oxLDL, LDL-RD mice): 74% | reduction in Stimulation Index of OxLDL-sensitized lymph node cells ([3]; oral, 3 doses of 100 μg, LDL-RD mice immunized with OxLDL): 87% | TGF-β levels in the conditioned medium of lymph node cells ([4]; cells from β2GPI-tolerized mice): below the detection threshold | levels of IFN-γ secreted by lymph node cells ([4]; cells from β2GPI-tolerized mice, stimulation with β2GPI, mean value): 1802 ± 588 pg/mL | Levels of IL-4 in medium relative to control animals ([4]; oral administration, immunized with β2GPI, cells incubated 48 h with β2GPI, p<0.01): three times higher | IL-10 secretion relative to BSA-treated controls ([4]; oral administration, immunized with β2GPI, in-vitro priming with β2GPI, p<0.05): 2.6 times | IgM, IgA, or IgG total antibody levels and isotype distribution [5]: did not alter | reduction in atherogenesis by oral tolerance [6]: approximately 30%
